Reference: patent publication WO2016073894A1 (dated 2016)
Changes are numbered by the printed parent chain. Names and notes keep the numbering of the source.

Key:
[1] = biological target: T1, human IL-6 (human, UniProt P05231 30-212); test: cell-based or functional assay
[2] = biological target: hyper IL-6; test: cell-based or functional assay
[3] = biological target: T2, IL-6R on HEK-Blue IL6 reporter cells (UniProt P08887 20-468, limits assumed); test: cell-based or functional assay
T2 sequence (looked up): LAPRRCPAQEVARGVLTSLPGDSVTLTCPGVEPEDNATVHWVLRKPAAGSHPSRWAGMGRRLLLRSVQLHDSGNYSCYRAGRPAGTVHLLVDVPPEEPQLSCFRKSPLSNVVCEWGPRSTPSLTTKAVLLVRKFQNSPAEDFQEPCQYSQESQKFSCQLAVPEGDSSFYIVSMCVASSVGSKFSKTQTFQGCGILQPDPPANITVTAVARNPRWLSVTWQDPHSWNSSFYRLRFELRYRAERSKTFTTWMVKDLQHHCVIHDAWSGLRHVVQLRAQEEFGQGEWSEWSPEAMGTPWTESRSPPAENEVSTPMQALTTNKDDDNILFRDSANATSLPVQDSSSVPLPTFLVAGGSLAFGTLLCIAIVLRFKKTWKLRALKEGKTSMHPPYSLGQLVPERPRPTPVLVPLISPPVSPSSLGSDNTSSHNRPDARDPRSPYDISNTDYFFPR

[4] = biological target: T1, human IL-6; test: ELISA on plates coated with human IL-6, hybridoma supernatants
[5] = biological target: T1, human IL-6; test: yeast Fab display; biotinylated IL-6 remaining after overnight competition with 2 uM IL-6
[6] = biological target: T1, human IL-6; test: yeast system; format in the assay not stated

B1: EBI-030 IgG2 (antibody)
heavy: QVQLVQSGAEVKKPGSSVKVSCKASGYVLPNYLIEWVRQAPGQGLEWMGVTTPGGGTINYAQKFQGRVTITADESTSTAYMELSSLRSEDTAVYYCARSRWDPLYYYALEYWGQGTTVTVSSASTKGPSVFPLAPCSRSTSESTAALGCLVKDYFPEPVTVSWNSGALTSGVHTFPAVLQSSGLYSLSSVVTVPSSNFGTQTYTCNVDHKPSNTKVDKTVERKCCVECPPCPAPPVAGPSVFLFPPKPKDTLMISRTPEVTCVVVDVSHEDPEVQFNWYVDGVEVHNAKTKPREEQFNSTFRVVSVLTVVHQDWLNGKEYKCKVSNKGLPAPIEKTISKTKGQPREPQVYTLPPSREEMTKNQVSLTCLVKGFYPSDIAVEWESNGQPENNYKTTPPMLDSDGSFFLYSKLTVDKSRWQQGNVFSCSVMHEALHNHYTQKSLSLSPGK
light: DIVMTQSPDSLAVSLGERATINCRASESVDNYGIPFMNWYQQKPGQPPKLLIYAASNRGSGVPDRFSGSGSGTDFTLTISSLQAEDVAVYYCQQSEEVPLTFGQGTKLEIKRTVAAPSVFIFPPSDEQLKSGTASVVCLLNNFYPREAKVQWKVDNALQSGNSQESVTEQDSKDSTYSLSSTLTLSKADYEKHKVYACEVTHQGLSSPVTKSFNRGEC
- IC50 fold less than that of EBI-029, HEK-Blue IL6 cells [1]: > 50 fold
- IC90 fold less than that of EBI-029, HEK-Blue IL6 cells [1]: ~4000 fold
- fold decrease in IC50 against EBI-029, HEK-Blue IL6 cells, 20 pM IL-6 [1]: ~50 fold
- fold decrease in IC90 against EBI-029, HEK-Blue IL6 cells, 20 pM IL-6 [1]: > 100 fold

B2: EBI-031 (antibody, human IgG2, kappa)
heavy: B1 heavy with H311A
light: B1 light
- IC50, cis-signaling, HEK-Blue IL6 cells, 20 pM free IL-6 [1]: 14.2 pM
- IC50 fold less than that of EBI-029, HEK-Blue IL6 cells [1]: > 75 fold
- IC90 fold less than that of EBI-029, HEK-Blue IL6 cells [1]: ~350 fold
- fold decrease in IC50 against EBI-029, HEK-Blue IL6 cells, 20 pM IL-6 [1]: ~50 fold
- fold decrease in IC90 against EBI-029, HEK-Blue IL6 cells, 20 pM IL-6 [1]: > 100 fold
- fold greater potency than tocilizumab, cis-signaling, HEK-Blue IL6 cells [1]: > 900 fold
- IC50, trans-signaling, HEK-Blue IL6 cells, 200 pM hyper IL-6 [2]: 32 pM
- fold more potent than tocilizumab, cellular assays [2]: > 900 fold

B3: Tocilizumab (antibody, human IgG1, kappa, V domains shown)
VH: QVQLQESGPGLVRPSQTLSLTCTVSGYSITSDHAWSWVRQPPGRGLEWIGYISYSGITTYNPSLKSRVTMLRDTSKNQFSLRLSSVTAADTAVYYCARSLARTTAMDYWGQGSLVTVSS
VL: DIQMTQSPSSLSASVGDRVTITCRASQDISSYLNWYQQKPGKAPKLLIYYTSRLHSGVPSRFSGSGSGTDFTFTISSLQPEDIATYYCQQGNTLPYTFGQGTKVEIKR
- IC50, cis-signaling, HEK-Blue IL6 cells, 20 pM free IL-6 [3]: 12.9 nM

B4: murine 64 antibody (antibody, V domains shown)
VH: QVQLQQSGAELVRPGTSVKVSCKASGYAFSNYLIEWVKQRPGQGLEWIGVITPGSGTINYNEKFKGKAVLTADKSSSTVYMQLSSLTSDDSAVYFCAKSRWDPLYYYALEYWGQGTSVTVSS
VL: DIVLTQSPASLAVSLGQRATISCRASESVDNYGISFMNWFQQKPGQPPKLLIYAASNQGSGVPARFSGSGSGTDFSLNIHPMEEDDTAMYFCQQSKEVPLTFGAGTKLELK
notes: Murine monoclonal from a hybridoma; also called Hybridoma 64; m64
- binding result [4]: binds

B5: EBI-029 Fab I51T/S55G (Fab, V domains shown)
VH: QVQLVQSGAEVKKPGSSVKVSCKASGYALSNYLIEWVRQAPGQGLEWMGVTTPGGGTINYAQKFQGRVTITADESTSTAYMELSSLRSEDTAVYYCARSRWDPLYYYALEYWGQGTTVTVSS
VL: DIVMTQSPDSLAVSLGERATINCRASESVDNYGIPFMNWYQQKPGQPPKLLIYAASNRGSGVPDRFSGSGSGTDFTLTISSLQAEDVAVYYCQQSEEVPLTFGQGTKLEIKR
notes: The mutations were introduced into the wild-type EBI-029 Fab; also called 151T/S55G
- binding result [5]: binds

B6: EBI-029 Fab A28V/I51T/S55G (Fab, V domains shown)
VH: B5 VH with A28V
VL: B5 VL
- binding result [5]: binds

B7: EBI-029 Fab S30P/I51T/S55G (Fab, V domains shown)
VH: B5 VH with S30P
VL: B5 VL
- binding result [5]: binds

B8: h64 IgG (antibody, V domains shown)
VH: B5 VH with L29F, T51I, G55S
VL: DIVMTQSPDSLAVSLGERATINCRASESVDNYGISFMNWYQQKPGQPPKLLIYAASNQGSGVPDRFSGSGSGTDFTLTISSLQAEDVAVYYCQQSKEVPLTFGQGTKLEIK
notes: Expressed as inline fusions with the human IgG1 constant domains; also called original h64 antibody; the original humanized molecule
- Kd [6]: 0.343 nM
